Target: GST-tagged p65_(532–550) (human)
Experiment: pull-down

Substance	binding efficiency (bound fragment intensity/input fragment intensity)
His-DNA-PKcs_(541-988) (from UniProt P78527 541-988) (domain or fragment)	17%
His-DNA-PKcs_(2408-2819) (from UniProt P78527 2408-2819) (domain or fragment)	99%

— publication PMC10477060
